No end group written: not given here.
Experiments:
CD27 protein = target: T1, CD27 protein (Homo sapiens, UniProt P26842); assay: ELISA binding of BSA-conjugated SEMG2 (497-509) polypeptides to CD27; details: versus negative BSA control
T1 construct: the extracellular region of human CD27 protein fused to the Fe fragment of human antibody
T1 sequence (P26842 20-191 limits assumed): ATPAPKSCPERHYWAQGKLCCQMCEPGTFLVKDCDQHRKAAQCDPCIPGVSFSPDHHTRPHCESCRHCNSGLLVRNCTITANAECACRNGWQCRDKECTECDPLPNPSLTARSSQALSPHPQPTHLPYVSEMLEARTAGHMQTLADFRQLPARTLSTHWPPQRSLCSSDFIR
Experimental: (§1) FIG. 6 depicts the binding between SEMG2 epitope polypeptides and CD27, and its competitive inhibition of full-length SEMG2 binding to CD27. […] As shown in the figure, different concentrations of peptides are firstly co-incubated with CD27-Fc for binding, and then added into the micro-reaction plate pre-coated with SEMG2 protein. After co-incubation, the unconjugated molecules are washed off, and anti-Fc secondary antibody-HRP are then used for detecting and developing.
These mutant plasmids and CD27 expression vector were co-transfected into HEK293 cells, and the degree of GFP-fused 1-13 polypeptide variants binding to CD27 was detected by co-immunoprecipitation assay. […] Therefore, it can be seen that the amino acids at positions 497, 498, 499, 500, 501, 502, 503, 504, 505, 506 and 508 of SEMG2 have obvious effects on the binding to CD27. The peptide sequence 497-509 was coupled to BSA, and coated onto a 96-well microplate. CD27-hFc at different concentrations was used as the primary antibody to detect the ability of CD27 to bind to the peptide sequence.

[1] = target: T2, binding between full-length SEMG2 and CD27 (Homo sapiens, UniProt P26842); assay: Peptide competition ELISA: CD27-Fc pre-incubated with peptide, added to SEMG2-coated plate; details: different concentrations of peptide co-incubated with CD27-Fc
T2 construct: the extracellular region of human CD27 protein fused to the Fe fragment of human antibody
T2 sequence (P26842 20-191 limits assumed): T1 sequence (P26842 20-191 limits assumed)
Experimental: as §1

human CD27 = target: T3, human CD27 (Homo sapiens, UniProt P26842); assay: Co-immunoprecipitation of GFP-fused SEMG2 fragments with CD27 in co-transfected HEK293 cells; format: binding; details: GFP-fused fragment co-transfected with CD27 into HEK293 cells
T3 construct: HA; expressed in transfected cells; host or cells: HEK293
T3 sequence (P26842 20-260): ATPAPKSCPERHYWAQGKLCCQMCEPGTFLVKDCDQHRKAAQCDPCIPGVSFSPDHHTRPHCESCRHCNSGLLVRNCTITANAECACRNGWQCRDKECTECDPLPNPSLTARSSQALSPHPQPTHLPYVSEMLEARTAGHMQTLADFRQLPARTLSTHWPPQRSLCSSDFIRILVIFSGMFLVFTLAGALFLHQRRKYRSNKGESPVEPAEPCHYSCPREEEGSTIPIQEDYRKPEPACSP
Experimental: (§2) In co-immunoprecipitation experiment, cells were lysed in IP buffer (Thermo Scientific) and Roche complete protease inhibitor for 10 minutes, followed by the addition of benzonase (sigma) for 25 minutes at room temperature. The lysate was then centrifuged at 15,000 rpm at 4° C. to remove the precipitate. The supernatant was then incubated with primary antibody slowly rotated overnight at 4° C., followed by the addition of protein A or protein G dynabeads and incubated at 4° C. for 2 hours, washed for 4 times in PBST (PBS with 0.01% Tween 20), eluted with 50 mM DTT in SDS sample buffer for 10 minutes at 100° C., separated with SDS, and immunoblotted as previously described.
To further confirm which part of SEMG-2 binds to CD27, fragments of SEMG2 protein were designed. The amino acid sequence of full-length SEMG2 protein (SEQ ID NO:1) was divided into 6 segments of sequences, fused with GFP and named as SEMG2-P1, SEMG2-P2, SEMG2-P3, SEMG2-P4, SEMG2-P5 and SEMG2-P6 (See Table 1 for specific sequences, with corresponding abbreviation as P1-P6 respectively). Plasmids expressing these amino acid sequences were co-transfected with CD27 into HEK293 cells, and co-immunoprecipitation experiments were performed to identify the main fragment of SEMG2 that binds to CD27. […]

mouse CD27 = target: T4, mouse CD27 (Mus musculus, UniProt P41272); assay: Co-immunoprecipitation of GFP-fused SEMG2 fragments with mouse CD27 in co-transfected HEK293 cells; format: binding; details: GFP-fused fragment co-transfected with mouse CD27 into HEK293 cells
T4 construct: HA; expressed in transfected cells; host or cells: HEK293
T4 sequence (P41272 24-250): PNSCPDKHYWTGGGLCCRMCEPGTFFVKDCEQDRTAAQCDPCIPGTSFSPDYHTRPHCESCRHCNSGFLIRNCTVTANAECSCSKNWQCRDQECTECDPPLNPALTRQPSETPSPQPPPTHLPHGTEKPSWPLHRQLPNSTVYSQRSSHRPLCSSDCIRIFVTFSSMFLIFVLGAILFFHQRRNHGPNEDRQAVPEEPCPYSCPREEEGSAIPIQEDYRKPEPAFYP
Experimental: as §2
To further confirm the key amino acids in the binding between SEMG2-P5 sequence and CD27, SEMG2(497-509) fragment was selected and named as SEMG2-P7 (the specific sequence is QIEKLVEGKSQIQ, abbreviated as P7 or SP7). SEMG2-P7(497-509), SEMG2-P5(positive control), SEMG2-P4 (negative control) or SEMG2-P6 (negative control) was co-transfected with CD27 into HEK293 cells respectively, including human CD27 and mouse CD27. […] This co-immunoprecipitation experiment confirmed that SEMG2(497-509) is the main structure that binds to human and mouse CD27.

Row | Substance | binding to CD27 protein on the microplate (CD27 protein) | inhibitory effect on the binding between full-length SEMG2 and CD27 [1] | binding to CD27 (co-immunoprecipitation) (human CD27) | binding to mouse CD27 (co-immunoprecipitation) (mouse CD27)
1 | BSA-conjugated human SEMG2 (497-509) polypeptide: human SEMG2 (497-509) peptide coupled to BSA (QIEKLVEGKSQIQ; also: coupled to BSA, site not given here) | can bind | – | – | –
2 | QIAKLVEGKSQ [SEMG2-derived polypeptide derivative] | – | can inhibit the binding | – | –
3 | QIEKLVEGKSQ (UNSURE (1)..(11) Epitope peptides) | – | can inhibit the binding | – | –
4 | QIEKLVEGKSQI (UNSURE (1)..(12) Epitope peptides) | – | can inhibit the binding | – | –
5 | QIEKLVEGKSQIQ (UNSURE (1)..(13) Epitope peptides) [SEMG2-P7] | – | can inhibit the binding | bind | bind
